Source: US20240240160A1, “NOVEL OLIVETOL SYNTHASES FOR C[…]” (priority 2021, published 2024)

Tested on: E. coli derivative strain which overexpressed an acyl-CoA synthetase (fadD) gene and expressed an olivetolic acid cyclase (OAC) from Cannabis sativa
Assay: OL, OLA and PDAL production in E. coli from plasmid-expressed Type-III PKS genes
Type: cell-based
Conditions: gene on plasmid; for Total: OL + OLA + PDAL; for OL / OLA / PDAL: constitutive promoter, culture spiked with 4 mM hexanoic acid
Protocol: To test olivetolic acid production in E. coli, strains comprising a putative OLS gene and an OAC gene from C. sativa were inoculated in multi-well plates containing LB supplemented with 1% glucose and appropriate concentrations of antibiotics. After 6 hours of cultivation at 32° C., the cells were transferred with a 10% inoculum to a P-limited seed medium (see Table 2) and cultivated for ˜18 hours at 32° ° C. to reach an OD of 2.0-4.0. The cultures were transferred with a 20% inoculum in a P-minimal medium (see Table 3) supplemented with 2% glucose and appropriate concentrations of antibiotics. After 3 hours of cultivation at 32° C., the culture was spiked with 4 mM hexanoic acid (˜OD 1.5-2.0). The resulting cultures were then harvested at either 3 hours or 21 hours post hexanoic acid spike; a final OD was taken. 300 μL of butyl acetate containing 500 mg/L undecanoic acid was added to each multi-well plate. The plates were then vortexed for 30 minutes at 1500 rpm and centrifuged for 10 minutes at 4500 rpm. 50 μL of organic layer was transferred to a 96-well plate and derivatized with 50 μL of N,O-Bis(trimethylsilyl)trifluoroacetamide (BSTFA). The plate was then incubated at room temperature for 2 hours to allow for complete derivatization. The samples were then run on GC-FID for analytical quantification of olivetolic acid (OLA), olivetol (OL), PDAL, and hexanoic acid.
Olivetol, PDAL, OLA, HTAL, CBGA and combinations thereof were analyzed by LCMS or LCMS/MS methods using C18 reversed phase chromatography coupled to either EXACTIVE™ (ThermoFisher) or QTRAP® 4500 (Sciex) mass spectrometers.
For reversed phase LCMS, compounds were identified by their LC retention times and MRM transitions specific to the compounds. LCMS/MS analysis was conducted on a Shimadzu UHPLC system coupled with AB Sciex QTRAP 4500 mass spectrometer. Agilent Eclipse XDB C18 column (4.6×3.0 mm, 1.8 μm) was used with a 1-min gradient elution at 1 mL/min using water containing 0.1% ammonia acetate as mobile phase A and 90% methanol containing 0.1% ammonia acetate as mobile phase B. The LC column temperature was maintained at 45° C. Negative ionization mode was used for all the analytes.
The genes for 20 Type-III PKS enzymes were codon optimized for E. coli and cloned under control of a constitutive promoter into an expression vector (p15a replicon, carbenicillin resistance marker). The 20 plasmids were transformed into an E. coli derivative strain which overexpressed an acyl-CoA synthetase (fadD) gene and expressed an olivetolic acid cyclase (OAC) from Cannabis sativa.
The in vivo assay procedure and analytical methods were performed as described above.

B1: PKU71375.1: Type-III PKS enzyme from Dendrobium catenatum (protein, listed as Dendrobium catenatum)
chain: MAQRADGSASILAIGKATPENFLEQSTYPDYFFRVTNSQHLIDLKKKFQRICDKTSIRKRHFILNEELITKNPCLSKFMENSINTRLEIYAKEIQKLAVEAATKAIQEWGQPKSCITHLIFSTLSDPGLPCGDYHLLQTLGLSPNIERVVILQHGCFAGGTMLRLAKCLAESHKGARVLVVSAETTTMLFRGPSEEHQEDLITQALFADGASALIVGVNPNETIGERASFVITSASQVILPNSSHAITGHLSEGGIKATIHKDVPNLLSNNIGKILEEAFTPLGISNWNSIFWVVHPGGRAILDQLEERVGLKPEKLMISRHVLAEYGNLMGVCVHFVLDEMRKRSIDEGNTTTGEGLEWGVLLGFGLGVTIETIVLQSVSL
modifications: (1)..(382) PKU71375.1
Q: Which results are given for B1?
A: Total: 0 µM; OL: 0 µM; OLA: 0 µM; PDAL: 0 µM

B2: AFU07709.1: Type-III PKS enzyme from Paphiopedilum armeniacum (protein, listed as Paphiopedilum armeniacum)
chain: MPGLENRKKVEAPKREEGLATIMAIGRANPPNAMEQSTFPDFYFRVTNSEHMVGLKKKFQRICEKTAIRRRHFVWNEEILNANPCMCTHMEPSLNVGQKIVVAEIPKLGAEAASRAIEVWGQPKSRITHLIFCTTSSMDLLGADYKITRILGLNLNVQRGMLYQQGCFAGGTVLRLAKCFTESQKGTRVLVVCSENAIILVRASSEDYQDDLVTQALFADGASALIVGEDPDEEAKERPIFTIISTTHVILPDSDGAIGGHLGEGGLMATLQRDVPFIISKNVNTCLEESFAPLVISDWNSVFWAPHSGGRAILDQVEERAGLKPEKLWASRHVLAKYGNMSSVCVHFVLDEIRKRSTKEGKTTTGEGFDWGVLFGFGLGLTVETVILRSVPLN
modifications: (1)..(394) AFU07709.1
Q: How did the Total turn out when B2 was run?
A: 0 µM

Q: What about the OL of the same molecule?
A: 0 µM

Q: And the OLA?
A: 0 µM

Q: And the PDAL?
A: 0 µM

B3: A0A0D9W1R8: Type-III PKS enzyme from Leersia perrieri (protein, listed as Leersia perrieri)
chain: MGSQGEYYNKEGRGQAAILGIGSAVPPYELPQSSFPDYYFDVSNSNHRQDLKAKFAKICERTMIEKRCVYMSEEFLRSNPSVTAYSSPSIDVRQRLTDATVPELGAAAARVAIADWGRPASEISHLVMCSTVSGCMPGADYEVVKLLGLPLSTKRCMMYHIGCHGGGTVLRIAKDIAENNPGARVLVVCSEVISMALRGPSDSNMGNLVGQALFGDAGAAVVVGTDPVESCGERALFEMVAAMQDIIPDTEEMVAKLREDGLLYSLHRDVPVHIEANIEAIVNKSGVGAKAADWNEDVFWLVHPGGRDILDRVARRLGLRHDKVEVSREVMRKHGNTLSSCVVIAMEEMRRRSAERGMGTAGEGLEWGLLFGFGPGLTVETILLRAPLTHPPPCAHAAVRPQ
modifications: (1)..(402) ProtKB - A0A0D9W1R8
Q: For B3, which Total is on record?
A: 0 µM

Q: What about the OL of the same molecule?
A: 0 µM

Q: And the OLA?
A: 0 µM

Q: What about the PDAL of the same molecule?
A: 0 µM

B4: PKA56805.1: Type-III PKS enzyme from Apostasia shenzhenica (protein, listed as Apostasia shenzhenica)
chain: MPGVEAVAQNISPARSDGLAAILAIGRANPPNIVEQSSFADLYFRLHNSEHLVDLKKKLQRICDRTAIRKRHFVWDEELLMANPCLRTVTEPSLNARQKVAITEIPKLGAAAATNAIAEWGRPKSDITHLIFCTTSGMDLPGADYQLIRLLGLNDNIQRIMLYQQGCFAGGTVLRLAKVLAESRRSARVLIVCAETTTVLVRSPSVENQDDLVTQALFADGASALIVGADPNAGEKPVFSVFSTSQVLLPDSDGAIGGHVGENGLTATLHRDVPAVISKNVGKCLEEAFTPLGISDWNSIFWAAHPGGRAILDQVEERVGLKPEKMWASRHVLAEYGNMSSVSVHFALDEIRRRSAKEGKATTGDGFEWGVLFGFGPGLTVETVVLRSAPISA
modifications: (1)..(393) PKA56805.1
Q: For B4, which Total is on record?
A: 37 µM

Q: And the OL?
A: 27 µM

Q: And the OLA?
A: 10 µM

Q: What about the PDAL of the same molecule?
A: 0 µM

B5: B1Q2B6: Cannabis sativa olivetol synthase (OLS), 3,5,7-trioxododecanoyl-CoA synthase (protein, listed as Cannabis sativa)
chain: MNHLRAEGPASVLAIGTANPENILLQDEFPDYYFRVTKSEHMTQLKEKFRKICDKSMIRKRNCFLNEEHLKQNPRLVEHEMQTLDARQDMLVVEVPKLGKDACAKAIKEWGQPKSKITHLIFTSASTTDMPGADYHCAKLLGLSPSVKRVMMYQLGCYGGGTVLRIAKDIAENNKGARVLAVCCDIMACLFRGPSESDLELLVGQAIFGDGAAAVIVGAEPDESVGERPIFELVSTGQTILPNSEGTIGGHIREAGLIFDLHKDVPMLISNNIEKCLIEAFTPIGISDWNSIFWITHPGGKAILDKVEEKLHLKSDKFVDSRHVLSEHGNMSSSTVLFVMDELRKRSLEEGKSTTGDGFEWGVLFGFGPGLTVERVVVRSVPIKY
modifications: (1)..(385) B1Q2B6 OLIS_CANSA 3,5,7-trioxododecanoyl-CoA synthase
Q: With B5 as the molecule, how does the Total read?
A: 1072 µM

Q: And the OL?
A: 324 µM

Q: And the OLA?
A: 279 µM

Q: What about the PDAL of the same molecule?
A: 470 µM

B6: AAZ32093.1: Type-III PKS enzyme from Oncidium Gower Ramsey (protein)
chain: MPSLESIKNAPKTDGFASILAIGSANPENIIEQSTYPDFFFHLTNSEHLVDLKNKFQRICDKTAIRKRHFAWNEELLTANPCLRTFMDNSLNVRQEFVIREIPKLGAQAATKAIQEWGQSKSRITHLIFSTTSGMDLPGADYQLTQILGLNPNIERVMLYHQGCFAGGTTLRLTKSLAESRKGARVLVVCAETTSALTFRAPSEEHQDDLVVQALFGDGASALIVGADPDEAADERASFIIVSTSQVLLSDSAGAIGGHLSEGGLIVTLHRDVPQIVSKNVGNCLKEAFTPLGISDWNSIFWVPHPGGPAILDQIEERVGLNPEKLIISRHMLAEYGNMLGVSVHFALDEMRKRSAKEGKATTGEGLDWGVLLGIGPGITVETVVLHSVRI
modifications: Oncidium hybrid cultivar; (1)..(391) AAZ32093.1
notes: Type-III PKS enzyme from Oncidium Gower Ramsey
Q: How did the Total turn out when B6 was run?
A: 16 µM

Q: And the OL?
A: 16 µM

Q: And the OLA?
A: 0 µM

Q: What about the PDAL of the same molecule?
A: 0 µM

B7: XP_020572025.1: Type-III PKS enzyme from Phalaenopsis equestris (protein, listed as Phalaenopsis equestris)
chain: MPSFPSVKKAPTAEGFASILAIGRANPENFIEQSAYPDFFFRVTNSEHLVDLKKKFQRICDKTAIRKRHFVWNEEFLTANPCFSTFMDKSLNVRQEVAIREIPKLGAKAATKAIEDWGQPKSRITHLIFCTTSGMDLPGADYQLTQILGLNPNVERVMLYQQGCFAGGTTLRLAKCLAESRKGARVLVVCAETTTVLFRAPSEEHQDDLVTQALFADGASAVIAVIVGADPDEAADERASFVIVSASQVLLPDSAGAIGGHVSEGGLLATLHRDVPQIVSKNVGKCLEEAFTPFGISDWNSIFWVPHPGGRAILDQVEERVGLKPEKLSVSRHVLAEYGNMSSVCVHFALDEMRKRSAKEGKATTGEGLEWGVLFGFGPGLTVETVVLQSVPI
modifications: (1)..(393) XP_020572025.1
Q: For B7, which Total is on record?
A: 0 µM

Q: What about the OL of the same molecule?
A: 0 µM

Q: And the OLA?
A: 0 µM

Q: And the PDAL?
A: 0 µM

B8: AFU07710.1: Type-III PKS enzyme from Paphiopedilum × areeanum (protein)
chain: MPGLENRKKVEVPKRAKDLATIMAIGRANPPNAVEQSTFPDFYFRVTNNEHLVGLMKKFQCICEKTVIRRRHFVWDEEILNANPCLRTHMEPSFNVRQKIAVAEIPKMGAEAASRAIKEWGQPKSRITYLIFYTMSGMDLPVTDYKLTRILNLNLNVYQVMLYQWDCIAGGTILCWAKCSAESQKGTRVLVVSSETTTVLVRAPSEDYHDDLVTQDLFGDGASALIVGADPDEEAKERPIFTIVSTSQVVLPDSDGVIGGHLSEGGLMATLHRDVALIISKNVSKCLEEAFVTLGISDWNSIFWAPHPCRRAILDQVEERVGLKPEKLWASRHVLAEFGNMTSVCVHFVLDEIHNRSTQGKTTTGEGFDWGVLFGFGPGLIVETVILRSVPLN
modifications: Paphiopedilum x areeanum; (1)..(393) AFU07710.1
Q: B8 was tested. Which Total did it give?
A: 0 µM

Q: What about the OL of the same molecule?
A: 0 µM

Q: And the OLA?
A: 0 µM

Q: And the PDAL?
A: 0 µM

B9: A0A0D9WZ61: Type-III PKS enzyme from Leersia perrieri (protein, listed as Leersia perrieri)
chain: MAPVPANGAATATATTQEIRRAQRADGPATVLAIGTANPETYVSQDEYADYYFRITKSEHLPELKDKLRRICNKSGIDKRFMYVNEDVMEAHPEFADRNQSSLNARVEIASKAVPELAAAASAKAIAEWGRPATDITHLIFSTYSGVKAPSGDRLLASLLGLRPNVSRTTLSLHGCYGGGRALQLAKELAENNRGARVLVACAEMTLIAFYGPEVGCNDTIVGQALFGDGSGAVIVGADPVDAAGERPLFEMAFASQTTVPDSEGAITMQHTKGGMDYHIGSGIPEMLAGNIERCLADAFDSIGVAADWKDLFWAVHPGGRRILDLIEEALGLDNGAMASRQVLREFGNMSGTTVIFVLNELRRRFKANGAEGADWGALMAFGPGVTIETMLLRVAAGLKGN
modifications: (1)..(402) ProtKB - A0A0D9WZ61
Q: Which results are given for B9?
A: Total: 34 µM; OL: 34 µM; OLA: 0 µM; PDAL: 0 µM
